Experimental data: doi:10.1101/2023.10.05.560930 (bioRxiv, 2023)
Where no end group is shown, it is not given here. Cy5 = Cy5 fluorophore

Tests used:
Assay in all cases: fluorescence polarisation
[…]2(1-117) = […]2(1-117) (human, UniProt P60520 1-117)
LC3A(1-120) = LC3A(1-120) (human, UniProt Q9H492 1-120)
[…]1(1-117) = […]1(1-117) (human, UniProt Q9H0R8 1-117)
GABARAP(1-116) = GABARAP(1-116) (human, UniProt O95166 1-116)
LC3C(1-126) = LC3C(1-126) (human, UniProt Q9BXW4 1-126)
LC3B(1-120) = LC3B(1-120) (human, UniProt Q9GZQ8 1-120)

Measured: binding result

SDNSSGGDDDWTHLSSK-Cy5 [p62-LIR peptide linked to a Cy5 fluorophore]
binds: all assays above
